Source: patent publication US6096502, “Substrate for detecting UL9 helicase activity” (Lee; Sam S.-K.)

Target: UL9 protein (origin-binding protein/helicase) (UniProt P10193 P10193:1-851)
Assay: EMSA; binding to Box I with attached ssDNA tails verified by gel mobility shift; substrate number not specified
Settings: tags: none stated; baculovirus-infected Sf21 nuclear extract, 83 kDa; chain copies: 2 (homodimer on Box I, stated); label: 5'-32P on 44-mer; forked duplex with 18-nt 3' ssDNA tail and 10-nt 5' ssDNA tail

Chain of UL9 protein (origin-binding protein/helicase) (P10193 whole entry, one chain of several): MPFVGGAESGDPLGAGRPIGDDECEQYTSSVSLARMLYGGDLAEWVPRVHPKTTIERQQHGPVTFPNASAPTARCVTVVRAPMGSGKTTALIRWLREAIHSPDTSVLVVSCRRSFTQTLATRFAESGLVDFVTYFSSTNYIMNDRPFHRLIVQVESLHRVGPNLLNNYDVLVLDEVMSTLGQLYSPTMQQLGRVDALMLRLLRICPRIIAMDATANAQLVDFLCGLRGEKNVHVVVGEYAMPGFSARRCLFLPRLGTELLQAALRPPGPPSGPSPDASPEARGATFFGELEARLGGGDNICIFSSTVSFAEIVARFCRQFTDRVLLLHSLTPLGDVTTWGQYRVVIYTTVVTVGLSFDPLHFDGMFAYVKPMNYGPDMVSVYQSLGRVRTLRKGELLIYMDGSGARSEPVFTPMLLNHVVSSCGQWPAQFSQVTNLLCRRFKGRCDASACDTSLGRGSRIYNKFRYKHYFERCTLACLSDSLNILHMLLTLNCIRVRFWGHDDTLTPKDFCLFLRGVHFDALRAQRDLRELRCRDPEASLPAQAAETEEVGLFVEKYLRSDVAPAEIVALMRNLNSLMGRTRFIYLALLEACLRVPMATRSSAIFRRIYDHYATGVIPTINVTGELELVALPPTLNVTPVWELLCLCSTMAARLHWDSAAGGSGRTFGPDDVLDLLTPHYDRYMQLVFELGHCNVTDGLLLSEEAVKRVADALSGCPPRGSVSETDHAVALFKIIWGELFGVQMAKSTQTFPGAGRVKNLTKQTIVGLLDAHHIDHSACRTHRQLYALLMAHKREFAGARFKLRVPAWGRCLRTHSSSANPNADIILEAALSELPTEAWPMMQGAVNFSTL

B1: Substrate I (18-nt 3' tail on first strand, 5' tail on second strand) (mixed)
DNA 1: CGCGAAGCGTTCGCACTTCGTCCCGCCTTCCTGCGCCTTCCTGT
DNA 2: CATGCTCGCAGCGGGACGAAGTGCGAACGCTTCGCG
B1: binds.
